According to patent publication US20110300138A1 (published 2011):

Columns and labels:
TSHR260-AP (human) [1] = assay: TSHR260-AP bridge ELISA (full length TSHR on wells, TSHR260-AP in solution); IgG 250 µg/mL diluted in assay buffer
[2] = biological target: TSHR260-alkaline phosphatase (TSHR260-AP) (human) (UniProt P05187); assay: TSHR260-AP bridge ELISA, full length TSHR on wells; 0.5 µg/mL, diluted in assay buffer
[3] = biological target: TSHR260-alkaline phosphatase (TSHR260-AP) (human) (UniProt P05187); assay: TSHR260-AP bridge ELISA, full length TSHR on wells; 0.01 µg/mL, diluted in assay buffer
[4] = biological target: TSHR260-alkaline phosphatase (TSHR260-AP) (human) (UniProt P05187); assay: TSHR260-AP bridge ELISA, full length TSHR on wells; 0.1 µg/mL, diluted in assay buffer
TSHR260-AP (human) [5] = assay: TSHR260-AP bridge ELISA (full length TSHR on wells, TSHR260-AP in solution); IgG 0.01 µg/mL diluted in assay buffer
TSHR260-AP (human) [6] = assay: TSHR260-AP bridge ELISA (full length TSHR on wells, TSHR260-AP in solution); IgG 0.5 µg/mL diluted in assay buffer
TSHR260-AP (human) [7] = assay: TSHR260-AP bridge ELISA (full length TSHR on wells, TSHR260-AP in solution); IgG 0.005 µg/mL diluted in HBD serum
TSHR260-AP (human) [8] = assay: TSHR260-AP bridge ELISA (full length TSHR on wells, TSHR260-AP in solution); IgG 10 µg/mL diluted in HBD serum
[9] = biological target: TSHR260-alkaline phosphatase (TSHR260-AP) (human) (UniProt P05187); assay: TSHR260-AP bridge ELISA, full length TSHR on wells; 0.01 µg/mL, diluted in HBD
TSHR260-AP (human) [10] = assay: TSHR260-AP bridge ELISA (full length TSHR on wells, TSHR260-AP in solution); IgG 0.05 µg/mL diluted in HBD serum
[11] = biological target: TSHR260-alkaline phosphatase (TSHR260-AP) (human) (UniProt P05187); assay: TSHR260-AP bridge ELISA, full length TSHR on wells; 1 µg/mL, diluted in assay buffer
[12] = biological target: human TSHR (thyroid stimulating hormone receptor) expressed in transfected CHO cells (human) (UniProt P16473); assay: cell-based or functional assay
[13] = biological target: human TSH receptor (TSHR), wild type, expressed in CHO cells (human) (UniProt P16473); assay: cell-based or functional assay
[14] = biological target: human TSH receptor (wild type), expressed on transfected CHO cells (human) (UniProt P16473); assay: cell-based or functional assay

Mean absorbance at 405 nm (absorbance at 405 nm) (TSHR260-AP (human) [1]): 1.12
Mean absorbance at 405 nm (absorbance at 405 nm) [2]: -0.005
Mean absorbance at 405 nm (absorbance at 405 nm) [3]: -0.001
Mean absorbance at 405 nm (absorbance at 405 nm) [4]: -0.013
Mean absorbance at 405 nm (absorbance at 405 nm) (TSHR260-AP (human) [5]): -0.001
Mean absorbance at 405 nm (absorbance at 405 nm) (TSHR260-AP (human) [6]): -0.005
Mean absorbance at 405 nm (absorbance at 405 nm) (TSHR260-AP (human) [7]): 0.02
Mean absorbance at 405 nm (absorbance at 405 nm) (TSHR260-AP (human) [8]): 0.004
Mean absorbance at 405 nm (absorbance at 405 nm) [9]: 0.017
Mean absorbance at 405 nm (absorbance at 405 nm) (TSHR260-AP (human) [10]): -0.003
Mean absorbance at 405 nm (absorbance at 405 nm) [11]: 0.011
% Inhibition; 3 ng/mL M22 IgG + 0.001 µg/mL 5C9 IgG [12]: 7.7%
% Inhibition; 3 ng/mL M22 IgG + 0.01 µg/mL 5C9 IgG [12]: 25.2%
% Inhibition; 3 ng/mL M22 IgG + 0.1 µg/mL 5C9 IgG [12]: 92.8%
% Inhibition; 3 ng/mL M22 IgG + 1 µg/mL 5C9 IgG [12]: 97.1%
% Inhibition; 3 ng/mL M22 IgG + 10 µg/mL 5C9 IgG [12]: 94.4%
% Inhibition; 3 ng/mL M22 IgG + 100 µg/mL 5C9 IgG [12]: 97.1%
Cyclic AMP concentration; 3 ng/mL M22 IgG + 0.001 µg/mL 5C9 IgG [12]: 41 pmol/mL
Cyclic AMP concentration; 3 ng/mL M22 IgG + 0.01 µg/mL 5C9 IgG [12]: 33.2 pmol/mL
Cyclic AMP concentration; 3 ng/mL M22 IgG + 0.1 µg/mL 5C9 IgG [12]: 3.2 pmol/mL
Cyclic AMP concentration; 3 ng/mL M22 IgG + 1 µg/mL 5C9 IgG [12]: 1.3 pmol/mL
Cyclic AMP concentration; 3 ng/mL M22 IgG + 10 µg/mL 5C9 IgG [12]: 2.5 pmol/mL
Cyclic AMP concentration; 3 ng/mL M22 IgG + 100 µg/mL 5C9 IgG [12]: 1.3 pmol/mL
Cyclic AMP concentration; 100 µg/mL 5C9 IgG [12]: 1.7 pmol/mL
% Inhibition of constitutive activity; 0.001 µg/mL 5C9 IgG [13]: 0%
% Inhibition of constitutive activity; 0.01 µg/mL 5C9 IgG [13]: 1%
% Inhibition of constitutive activity; 0.1 µg/mL 5C9 IgG [13]: 13%
% Inhibition of constitutive activity; 0.3 µg/mL 5C9 IgG [13]: 50%
% Inhibition of constitutive activity; 1 µg/mL 5C9 IgG [13]: 61%
% Inhibition of constitutive activity; 3 µg/mL 5C9 IgG [13]: 63%
% Inhibition of constitutive activity; 10 µg/mL 5C9 IgG [13]: 56%
% Inhibition of constitutive activity; 100 µg/mL 5C9 IgG [13]: 52%
Cyclic AMP concentration (constitutive activity); 0.001 µg/mL 5C9 IgG [13]: 19.1 pmol/mL
Cyclic AMP concentration (constitutive activity); 0.01 µg/mL 5C9 IgG [13]: 18.6 pmol/mL
Cyclic AMP concentration (constitutive activity); 0.1 µg/mL 5C9 IgG [13]: 16.3 pmol/mL
Cyclic AMP concentration (constitutive activity); 0.3 µg/mL 5C9 IgG [13]: 9.3 pmol/mL
Cyclic AMP concentration (constitutive activity); 1 µg/mL 5C9 IgG [13]: 7.4 pmol/mL
Cyclic AMP concentration (constitutive activity); 3 µg/mL 5C9 IgG [13]: 6.9 pmol/mL
Cyclic AMP concentration (constitutive activity); 10 µg/mL 5C9 IgG [13]: 8.3 pmol/mL
Cyclic AMP concentration (constitutive activity); 100 µg/mL 5C9 IgG [13]: 9 pmol/mL
% Inhibition (constitutive activity); 0.1 µg/mL 5C9 IgG [14]: 0%
% Inhibition (constitutive activity); 0.2 µg/mL 5C9 IgG [14]: 0%
% Inhibition (constitutive activity); 1 µg/mL 5C9 IgG [14]: 45.9%
% Inhibition (constitutive activity); 2 µg/mL 5C9 IgG [14]: 45.3%
% Inhibition; 5C9 IgG 0.01 µg/mL + T11 [14]: 4.3%
% Inhibition; 5C9 IgG 0.1 µg/mL + T11 [14]: 19.8%
% Inhibition; 5C9 IgG 1 µg/mL + T11 [14]: 23%
% Inhibition; 5C9 IgG 10 µg/mL + T11 [14]: 13.9%
% Inhibition; 5C9 IgG 100 µg/mL + T11 [14]: 11.1%
% Inhibition; pTSH 3 ng/mL + 0.001 µg/mL 5C9 [14]: 0.2%
% Inhibition; pTSH 3 ng/mL + 0.01 µg/mL 5C9 [14]: 0%
% Inhibition; pTSH 3 ng/mL + 0.1 µg/mL 5C9 [14]: 78.7%
% Inhibition; pTSH 3 ng/mL + 1 µg/mL 5C9 [14]: 93.5%
% Inhibition; pTSH 3 ng/mL + 10 µg/mL 5C9 [14]: 98%
% Inhibition; pTSH 3 ng/mL + 100 µg/mL 5C9 [14]: 99.2%
Cyclic AMP concentration; 100 µg/mL 5C9 alone [14]: 0.2 pmol/mL
Cyclic AMP concentration; 5C9 IgG 0.01 µg/mL + T11 [14]: 24.1 pmol/mL
Cyclic AMP concentration; 5C9 IgG 0.1 µg/mL + T11 [14]: 20.2 pmol/mL
Cyclic AMP concentration; 5C9 IgG 1 µg/mL + T11 [14]: 19.4 pmol/mL
Cyclic AMP concentration; 5C9 IgG 10 µg/mL + T11 [14]: 21.7 pmol/mL
B1: 5C9 IgG (antibody, from another filing, V domains shown)
VH: EVQLVESGGGLIQPGGSLRLSCAASGFTVSSNYMSWVRQAPGKGLEWVSVTYSGGSTSYADSVKGRFTISRDNSKNTLYLQMNSLRAEDTAVYYCARGGRYCSSISCYARSGCDYWGQGTLVTVSS
VL: AIQMTQSPSSLSASVGDRVTITCRASQSISNYLNWYQQKPGKAPKLLIYAASSLQSGVPSRFSGSGSGTDFTLTISSLQPEDFATYYCQQSYSSPSTTFGQGTKLEIK
